The source of these data is US20220193132A1.

Test [1] deals with EGFRvIII, full length, overexpressed on glioblastoma cells (human) (UniProt P00533). Description: cell-based or functional assay.
Test [2] has as its target wild type human EGFR, full length, overexpressed on U87MG cells (human) (UniProt P00533). Description: cell-based or functional assay.
Test [3] addresses recombinant human EGFRvIII protein (extracellular domain), denatured (human) (UniProt P00533). The test is described as follows: ELISA Exp 1, mAb supernatant. Background: ELISA stands for enzyme-linked immunosorbent assay.
For test [4], the target named is recombinant human EGFRvIII protein (extracellular domain), native (human) (UniProt P00533). Description: ELISA Exp 1, mAb supernatant.
The target in test [5] is recombinant human wild type EGFR protein (extracellular domain), denatured (human) (UniProt P00533). The test is described as follows: ELISA Exp 1, mAb supernatant.
In test [6] the target is recombinant human wild type EGFR protein (extracellular domain), native (human) (UniProt P00533). The test is described as follows: ELISA Exp 1, mAb supernatant.
The target of test [7] is recombinant human EGFRvIII protein (extracellular domain), denatured (human) (UniProt P00533). The test is described as follows: ELISA Exp 2, purified mAb 1 ug/ml.
For test [8], the target named is recombinant human EGFRvIII protein (extracellular domain), native (human) (UniProt P00533). Description: ELISA Exp 2, purified mAb 1 ug/ml.
Test [9] concerns the target recombinant human wild type EGFR protein (extracellular domain), native (human) (UniProt P00533). Description: ELISA Exp 2, purified mAb 1 ug/ml.
For test [10], the target named is wild type human EGFR, full length, overexpressed on U87MG cells (human) (UniProt P00533). Description: flow cytometry dose-response on U87MG-EGFRwt cells, apparent Kd. For orientation: In flow cytometry, cells or beads pass a laser one at a time.
In test [11] the target is EGFRvIII, full length, overexpressed on glioblastoma cells (human) (UniProt P00533). Description: flow cytometry dose-response on U87MG-EGFRvIII cells, apparent Kd.
Test [12] has as its target recombinant human wild type EGFR protein (extracellular domain), denatured (human) (UniProt P00533). The test is described as follows: ELISA Exp 2, purified mAb 1 ug/ml.

In the case of 225 mAb (ATCC HB-8508) (antibody), the % internalization (pHrodo surrogate assay, vs 225 mAb) turned out to be 100% in test [1] and 101% in [2]. The % survival (DM1 secondary-conjugate ADC surrogate assay, vs mouse IgG) in test [1] is 49%; in test [2], 52%. The ELISA absorbance 405 nm in test [3] was 0.001 A405; in [4], 1.08 A405; in [5] it was -0.01 A405; in [6], 1.2 A405; in [7], 0.004 A405; in [8] it was 1.5 A405. The ELISA absorbance 405 nm in [9] amounted to 1.32 A405. The Kd in [10] and in [11] was 2.2 nM each time.
Turning to Neg ctrl mIgG (antibody), in [1], the % internalization (pHrodo surrogate assay, vs 225 mAb) was less than 3%.
For the substance Neg ctrl mouse mAb (antibody), the % survival (DM1 secondary-conjugate ADC surrogate assay, vs mouse IgG) in [1] and in test [2] was more than 98% in each case. Moreover, the ELISA absorbance 405 nm in test [8] was -0.001 A405; in test [12], 0 A405.
